Molecular target: Control
Test: SPR

- Kd: 329 nM
B1: muFcgRIV (receptor)
chain: GLQKAVVNLDPKWVRVLEEDSVTLRCQGTFSPEDNSIKWFHNESLIPHQDANYVIQSARVKDSGMYRCQTALSTISDPVQLEVHMGWLLLQTTKWLFQEGDPIHLRCHSWQNRPVRKVTYLQNGKGKKYFHENSELLIPKATHNDSGSYFCRGLIGHNNKSSASFRISLGDPGSPSMFPPWHQ

Source: patent publication US20120148575A1 (published 2012)
